This passage reports koff, kon and Mean Signal Value results from patent US20090136523A1 (published 2009).

Experiment [1] addresses T1, Purified recombinant human CD26 (rhDipeptidyl peptidase IV), R&D Systems CAT# 1180-SE (human, UniProt P27487 29-766).
T1 construct: also called hu-CD26; soluble human CD26
The experiment is described as follows: SPR (Biacore), IgG1 over CD26. How it is done: Fabs produced in E. coli as described below were diluted in PBS in a concentration of ˜0.5 μM for the assay. A typical recording included a 3 minute period of injection of the Fab followed by a period of 15 minutes of dissociation, and analysis was performed based on the raw data of the binding curves accordingly.
Analyses thereof were performed using Biacore® as described in Example 1, excepting the binding partners were the rhuMAbs noted above.

In a further experiment the target is peptide 125 (human). The experiment is described as follows: peptide microarray.
In a further experiment the target is peptide 69 (human). Put plainly: peptide microarray.
The target in the next experiment is peptide 16 (human). The experiment is described as follows: peptide microarray.
The target of a further experiment is peptide 121 (human). Put plainly: peptide microarray.
The next experiment has as its target peptide 13 (human). Put plainly: peptide microarray.

T1 sequence (P27487 29-766 limits assumed): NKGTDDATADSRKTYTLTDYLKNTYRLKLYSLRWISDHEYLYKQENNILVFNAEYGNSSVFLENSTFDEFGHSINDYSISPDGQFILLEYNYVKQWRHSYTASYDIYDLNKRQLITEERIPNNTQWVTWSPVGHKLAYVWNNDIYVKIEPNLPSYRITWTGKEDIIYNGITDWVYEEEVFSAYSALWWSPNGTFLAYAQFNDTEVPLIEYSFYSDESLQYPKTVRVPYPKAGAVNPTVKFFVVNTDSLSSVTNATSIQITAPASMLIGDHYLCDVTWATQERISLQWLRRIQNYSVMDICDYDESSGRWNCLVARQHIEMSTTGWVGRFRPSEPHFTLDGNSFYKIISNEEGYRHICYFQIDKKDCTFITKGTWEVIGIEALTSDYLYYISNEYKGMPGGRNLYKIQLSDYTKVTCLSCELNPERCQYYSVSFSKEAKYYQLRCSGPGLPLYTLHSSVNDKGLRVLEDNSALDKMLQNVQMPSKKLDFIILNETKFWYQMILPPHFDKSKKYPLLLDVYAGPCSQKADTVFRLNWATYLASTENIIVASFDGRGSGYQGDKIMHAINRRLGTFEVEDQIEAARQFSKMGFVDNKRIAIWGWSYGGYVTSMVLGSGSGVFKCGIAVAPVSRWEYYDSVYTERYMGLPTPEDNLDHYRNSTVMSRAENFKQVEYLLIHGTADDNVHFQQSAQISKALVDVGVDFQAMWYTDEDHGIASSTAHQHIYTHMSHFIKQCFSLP

B1: rhuMAb 411 (antibody, human IgG1, kappa, V domains shown)
VH: EVQLVESGAGVKQPGGTLRLTCTASGFSLTTYGVHWVRQAPGKGLEWVGVIWGDGRTDYDAAFMSRVTISKDTSKSTVYLQMNSLRAEDTAVYYCMRNRHDWFDYWGQGTTVTVSS
VL: DILLTQSPSSLSATPGERATITCRASQGIRNNLNWYQQKPGQAPRLLIYYSSNLQSGVPSRFSGSGSGTDFTLTISRLQPEDVAAYYCQQSIKLPFTFGSGTKVEIKR
notes: also called X411
For the molecule B1, in experiment [1], the koff was determined as 0.000108 s⁻¹. For the same molecule, in experiment [1], the kon was found to be 485000 M⁻¹ s⁻¹. For the same molecule, the Mean Signal Value with peptide 125 (human) was 1.8; in the experiment with peptide 69 (human), 2.45; with peptide 16 (human), 1.92; with peptide 121 (human), 2.08; with peptide 13 (human) it was 1.94.
